A short description of the data set: yeast display, Sf9 membrane polyspecificity reagent, FACS + sequencing; frameworks hold sequencing errors. Summed up:
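Nanobodies from a synthetic yeast display library (Saccharomyces cerevisiae BJ5465), induced 36–48 hours with galactose, were stained 1 hour at 4 °C with 10% biotinylated, detergent-solubilized Sf9 membrane reagent, enriched on streptavidin microbeads, then FACS-sorted. Anti-HA (expression) and streptavidin (reagent binding) fluorescence set low and high (top ~1%) gates. Polyreactivity labels come from the gate of origin. Genes were colony-PCR amplified, MiSeq 2 × 250 sequenced and filtered by CDR length.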
Regarding “QVQLVESGGGLVQAGGSLRLSCAASGFTFYPYAMGWYRQAPGKERELVASISSRGGSRTYYADSVKGRFTISRVNEKNTVYLQMNSLKTEDSAVYYCAATYVGLYRGYFTLTYYYWGQGTPVTVSS”, the “polyreactivity (PSR sort gate)” value is “high polyreactivity”.

In the case of “QVQLVESGGGLVQAGGSLRLSCAASGFTFYPYTMGWYRQAPGKERELVADITYDSTYYADSVKGRFTISRDNAKNTVYLQMNSLKPEDTAVYYCNATGYSVSRSAYWYGWYDYWGQGTQVTVSS”, the “polyreactivity (PSR sort gate)” value is “low polyreactivity”. The result for “QVQLVESGGGLVQAGGSLRLSCAASGFTFYQNAMGWYRQAPGKEREFVAAISRRGGSTYYADSVKGRFTSSRDNAKNTVYLQMNSLKPEDTAVYYCAADYKRKSDGDYWGQGTQVTVSS” reads “high polyreactivity”; that for “QVQLVESGGGLVQAGGSLRLSCAASGFTFYQYAMGWYRQAPGKEREFVAAISSSGSSTYYADSVKGRFTISRDNAKNTVYLQMNSLKPEDTAVYYCNAYFRNWRYSPGGYWGQGTQVTVSS”, “high polyreactivity”; that for “QVQLVESGGGLVQAGGSLRLSCAASGFTFYRNAMGWSRQAPGKERELVARIRGTGGRTYYADSVKGRFTISRDNAKNTVYLQMNSLKPEDSAVYYCARRYHYSLYGYWGQGTQVTVSS”, “high polyreactivity”. The result for “QVQLVESGGGLVQAGGSLRLSCAASGFTFYRNAMGWYRKAPGKERELVAAISWSGDSTYYADSVKGRFTISRDNAKNTVYLQMNSLKPEDTAVYYCAKSRYTALTNHWSHDYWGQGTQVTVSS” reads “low polyreactivity”; that for “QVQLVESGGGLVQAGGSLRLSCAASGFTFYRNAMGWYRQAPGKERELVAGISKRGGSTYYADSVKGRFTISRDNAKNTVYLLMNSLKPEDTAVYYCARGGYPGSAEYDYWGQGTQVTVSS”, “high polyreactivity”; that for “QVQLVESGGGLVQAGGSLRLSCAASGFTFYRNAMGWYRQAPGKERELVARISRGGSTNYADSVKGRFTISRDNAKNTVYLQMNSLKPEDTAVYYCNRDYYVGRYDYWGQGTQVTVSS”, “high polyreactivity”. On to “QVQLVESGGGLVQAGGSLRLSCAASGFTFYRNTMGWYRQAPGKERELVATITFSGTRTYYADSVKGRFTISRDNAKNTVYLQMNSLKPEDTAVYYCAADRPRRTKWGGGGYYWGQGTQVTVSS”, for which the “polyreactivity (PSR sort gate)” value is given as “high polyreactivity”. For “QVQLVESGGGLVQAGGSLRLSCAASGFTFYRYALGWYRQAPGKERELVAAISQRGGTTYYADSVKGRFTISRDNAKNTVYLQMNSLKPEDTAVYYCAKDRYYYPGNYWGQGTQVTVSS” the value was “high polyreactivity”; for “QVQLVESGGGLVQAGGSLRLSCAASGFTFYRYAMGWYRQAPGKERELVAAISRSGGSTSYADSVKGRFTISRDNAKNTLYLQMNSLTPEDTEVYYCATRNWYSLKDYYYWGQGTQVTVSS”, “high polyreactivity”; for “QVQLVESGGGLVQAGGSLRLSCAASGFTFYRYAMGWYRQAPGKERELVAAITASGGSTYYADSVKGRFTISRDNAKNTVYLQMNSLKPEDTAVYYCAKGWVSYWRYKNEYWGQGTQVTVSS”, “high polyreactivity”.

For “QVQLVESGGGLVQAGGSLRLSCAASGFTFYRYAMGWYRQAPGKERELVAAITSAGSTYYADSVKGRFTISRDNAKNTVYLQMNSLKPEDTAVSYCNAVGYFSYRDRDSEYYYNYGSWGQGTQVTVSS”, the “polyreactivity (PSR sort gate)” value is on record as “low polyreactivity”. The result for “QVQLVESGGGLVQAGGSLRLSCAASGFTFYRYAMGWYRQAPGKERELVASISRNGGSTYYADTVKGRFTISRDTEKNTVYFLMNSLKPEDTAVYYCNTAFYPPTNFYWGQGTQVTVSS” reads “high polyreactivity”; that for “QVQLVESGGGLVQAGGSLRLSCAASGFTFYRYAMGWYRQAPGKERELVATISASGGSTYYADSVKGRFTISRDNAKNTVYLQMNSVKPEDTAVYYFAVRYKSWYGFNYWGQGTQVTVSS”, “high polyreactivity”. For “QVQLVESGGGLVQAGGSLRLSCAASGFTFYRYAMGWYRQAPGKERELVAVITGRGGTTYYADSVKGRFTISRDNAKNTVYLQMNSMKPEDTAVYYCAVQTHRSLDPYDYWGQGTQVTVSS” the value was “high polyreactivity”; for “QVQLVESGGGLVQAGGSLRLSCAASGFTFYRYDMGWYRQAPGQERELVAAITNNGGNTYYADSVKGRFTISRDNAKNTVYLQMNSLKPEDTAVYYCAARTWGRYDYWGQGTQVTVSS”, “high polyreactivity”; for “QVQLVESGGGLVQAGGSLRLSCAASGFTFYRYPMGWYRQAPGKETELVAAITKRGDRTYYADSVKGRFRISRDNAKNTVFLQMSSLKPEDTAVYFCASDPYYSVSYWLAYDYWGQGTQVTVSS”, “high polyreactivity”. The result for “QVQLVESGGGLVQAGGSLRLSCAASGFTFYRYTMGWYRQAPGKERELFAAISARGVSTYYADSVKGRFTISRDNAKNTVYLQMNSLKPEDTAVYYCYVSRYDTWGQGTQVTVTS” reads “high polyreactivity”; that for “QVQLVESGGGLVQAGGSLRLSCAASGFTFYRYVMGWYRQAPGKERELVAAITGGGRTYYADSVKGRFTISRDNAKNTVYLQMNSLKPEDTAVYYCNKAVPAWGLYDYWGQGTQVTVSS”, “low polyreactivity”; that for “QVQLVESGGGLVQAGGSLRLSCAASGFTFYSNSMGWYRQAPGKERELVAAISSGGGTTYYADSVKGRFTISRDNAKNTVYLQMNSLKPEYTAVYYCAAGLSFFRSYSGFYYWGQGTQVTVSS”, “low polyreactivity”. On to “QVQLVESGGGLVQAGGSLRLSCAASGFTFYSYAMGWYRQAPGKERELVAAISWSGTRTYYADSVKGRFTISRDIAKNTVYLQMNSLKPEDTAVYYCAARGYRYGYGYWGQGTQVTVSS”, for which the “polyreactivity (PSR sort gate)” value was “high polyreactivity”.

As for “QVQLVESGGGLVQAGGSLRLSCAASGFTFYSYAMGWYRQAPGKERELVATITSAGSTNYADSVKGRFTISRDNAKNTVYLQMNSLKPEDTAVYYCAAVYYYIYYWGQVTQVTVSS”, the “polyreactivity (PSR sort gate)” value is “high polyreactivity”. The result for “QVQLVESGGGLVQAGGSLRLSCAASGFTFYSYDMGWYRQAPGKERELVAAITWSGGSTYYADSVKGRFTISRDNAKNTVYLQMNSLKPEDTAVYYCAAELFPLQHFWVAYATRRYDYWGQGTQVTVSS” reads “low polyreactivity”; that for “QVQLVESGGGLVQAGGSLRLSCAASGFTFYTNAMGWYRPAPGKEREFVAAISFSGGTYYADSVKGRFTISRDNAKNTVYLQMNSLKPEDTAVYYCNARYPRYYRGVIQYDYWGQGTQVTVSS”, “low polyreactivity”. For “QVQLVESGGGLVQAGGSLRLSCAASGFTFYTNAMGWYRPAPWKERELVAAIYARTGRTYYADSVKGRFTISRDNAKNTVFLQMNSLKPEDTAVYYCAKDRQSSSTDYGYWGQGTQVTVSS” the value was “high polyreactivity”. With “QVQLVESGGGLVQAGGSLRLSCAASGFTFYTYAMRLYRQAPGKERELVAAISKSGGSTYYADSVKGRFTISRDNAKNTVYLQMNSLKPEDTAVYYCAAVVVYFDEYDYWGQGTQVTVSS”, the “polyreactivity (PSR sort gate)” value is “low polyreactivity”. For “QVQLVESGGGLVQAGGSLRLSCAASGFTFYVNAMGWYRQAPGKERELVAAISSRGGSTYYADSVKGRFTISRDNAKNTVYLQMNSLKPEDTAVYYCATAKSYGEDSWGQGTQVTVSS” the value was “high polyreactivity”; for “QVQLVESGGGLVQAGGSLRLSCAASGFTFYVNAMGWYRQAPGKERELVAAISSSGTRTYYADSVKGRFTISRDNAKNTVYLQMNSLKPEDTAVYYCAARGQAYSGDRMYYWGQGTLVTVSS”, “high polyreactivity”. The result for “QVQLVESGGGLVQAGGSLRLSCAASGFTFYVNAMGWYRQAPGKERELVAAISSSGTRTYYADSVKGRFTISRDNAKNTVYLQMNSLKPEDTAVYYCAARGQAYSGDRMYYWGQGTQVTVSS” reads “high polyreactivity”. With “QVQLVESGGGLVQAGGSLRLSCAASGFTFYWYAMGWYRQAPGKEREFVAAIDQSGGSTYYADSVKGRFTISRDNAKNTVYLQMNSLKPEDTAVYYCAKLYTIGYDYWGQGTQVTVSS”, the “polyreactivity (PSR sort gate)” value was “low polyreactivity”. For “QVQLVESGGGLVQAGGSLRLSCAASGFTFYWYDMGWDRQAPGKEREFVAAIVQSGGSTYYADSVKGRFSISRDNAKITVYLQMKSLKPEDTAVYYGAARYILWDGDSWTEFDYWGQGTQVTVSS” the value was “low polyreactivity”; for “QVQLVESGGGLVQAGGSLRLSCAASGFTFYYNAMGWYRQAPGKERELVAAISSNGGSTYYADSVKGRFTISRDNAKNTVYLQMNSLKPEDTAVYYCAAYPKSSRWDFESWGQGTQVTVSS”, “low polyreactivity”.

On to “QVQLVESGGGLVQAGGSLRLSCAASGFTFYYNAMGWYRQAPGKERELVAGISGRGGTTYYADSVKGRFTISRDNAKNTVYLQMNSLKPEDTAVYYCAARKVRARSKFEYWGQGTQVTVSS”, for which the “polyreactivity (PSR sort gate)” value was “high polyreactivity”. The result for “QVQLVESGGGLVQAGGSLRLSCAASGFTFYYYAMGWSRQAPGKERELVAAISSAGGRTYYADSVKGRFTISRDNAKNTVYLQMNSLKPEDTAVYYCAATIKAYPTPLLGDYWGQGTQVTVSS” reads “high polyreactivity”; that for “QVQLVESGGGLVQAGGSLRLSCAASGFTFYYYAMGWYRQAPGKERELVAAINWDGRTYYADSVKGRFTISRDNAKNTVYLQMNTLKPEDTAVYYCAAGYYLLTYRYDYWGQGTQVTVSS”, “low polyreactivity”.

With “QVQLVESGGGLVQAGGSLRLSCAASGFTFYYYAMGWYRQAPGKERELVAAISSTGGSTYYADSVKGRFTISRDNAKNTVYLQMNSLKPEDSAVYYCNAAGYRYPGDYDYWGQGTQVTVSS”, the “polyreactivity (PSR sort gate)” value was “high polyreactivity”. For “QVQLVESGGGLVQAGGSLRLSCAASGFTFYYYAMGWYRQAPGKERELVAAISTRDGNTYYADSVKGRFTISRDNAKNTVYLQMNSLKPEDTAVYYCAADYFRYYPYDYWGQGTQVTVSS” the value was “low polyreactivity”; for “QVQLVESGGGLVQAGGSLRLSCAASGFTFYYYAMGWYRQAPGKERELVAGITGSGGRTYYADSVKGRFTISRDNAKNTVYLQMNSLKPEDTAVYYCNARSLWYDYWGQGTQVTVSS”, “high polyreactivity”. “QVQLVESGGGLVQAGGSLRLSCAASGFTFYYYAMGWYRQAPGKERELVASISWRGGSTYYADSVKGRFTISRDNAKITVYLQMNSLKPEDTAVYYCAAQKRGSPGYRRDYWGQGTQVTVSS”: the “polyreactivity (PSR sort gate)” value was “high polyreactivity”. For “QVQLVESGGGLVQAGGSLRLSCAASGFTFYYYAMGWYRQAPGKESDLVAAISWSGGTTYYADSVKGRFTISRDNAKNTVYFQMNSLKPEDPAVYYCAADIRDPGVPMDYWGQGTQVTVSS” the value was “low polyreactivity”.
